Experimental findings from PMC8887137 are described below.

For this series, the system named is NSP12 (RNA-dependent RNA polymerase) (SARS-CoV-2). Nature of the series: filter binding. The settings on record: 20 mM Tris, 200 mM KCl, room temperature, 1 h; pH not stated.

In turn, “NSP12 eCLIP peak RNA, region 7431-7555 (hairpin)” registered a Kd of 17 nM.

A word on the Kd: it is the constant that tells how readily two partners part at equilibrium. A higher Kd goes with a looser complex.
